Here are results for five molecules from article PMC10475540, “The teleost fish PepT1-type peptide transporters and their relationships with neutral and charged substrates” (Frontiers in Physiology, 2023).

Peptide text beside a SMILES is read from it.

One data set has as its target T1, zfPepT1b (Danio rerio, UniProt Q7SYE4).
T1 construct: gene slc15a1b; complete ORF in pSPORT1, cRNA-injected Xenopus laevis oocytes
T1 sequence (Q7SYE4 1-718): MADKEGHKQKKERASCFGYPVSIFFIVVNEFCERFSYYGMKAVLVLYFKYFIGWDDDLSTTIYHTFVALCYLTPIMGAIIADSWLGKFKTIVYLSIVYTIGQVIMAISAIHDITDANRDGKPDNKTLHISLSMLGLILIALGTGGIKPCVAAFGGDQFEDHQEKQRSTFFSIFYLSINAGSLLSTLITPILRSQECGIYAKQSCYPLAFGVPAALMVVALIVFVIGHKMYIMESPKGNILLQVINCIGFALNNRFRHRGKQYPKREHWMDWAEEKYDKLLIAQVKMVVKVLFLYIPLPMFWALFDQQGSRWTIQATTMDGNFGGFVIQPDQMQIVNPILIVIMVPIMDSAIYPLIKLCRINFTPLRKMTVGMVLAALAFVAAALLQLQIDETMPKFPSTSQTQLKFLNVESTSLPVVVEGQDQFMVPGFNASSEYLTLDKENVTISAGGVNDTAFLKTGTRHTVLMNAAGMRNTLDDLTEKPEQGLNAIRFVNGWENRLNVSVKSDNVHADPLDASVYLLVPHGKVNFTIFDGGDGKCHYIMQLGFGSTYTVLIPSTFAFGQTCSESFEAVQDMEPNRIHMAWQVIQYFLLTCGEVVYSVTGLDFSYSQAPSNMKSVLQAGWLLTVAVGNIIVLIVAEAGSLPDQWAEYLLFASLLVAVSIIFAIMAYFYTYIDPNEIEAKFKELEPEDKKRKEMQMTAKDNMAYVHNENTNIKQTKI
The data set is described as follows: two-electrode voltage clamp, transport current, Xenopus oocytes. In kind it is cell-based. As to conditions: 1 mmol/L, pH 7.6, -60 mV. (Two-electrode voltage clamp holds a large cell at a set potential and records current.)

Substrate in data set [1]: NCCCC[C@H](N)C(=O)NCC(=O)O
Briefly: cells, lysate or membranes. The following applies: pH 7.6, -140 mV, estimate, saturation not reached up to 30 mmol/L.

Substrate in data set [2]: NCCCC[C@H](N)C(=O)NCC(=O)O
The data set is described as follows: two-electrode voltage clamp, transport current, Xenopus oocytes. The following applies: pH 7.6, -140 mV, strongly voltage dependent. It counts as cell-based, Salmo salar.

Substrate in data set [3]: NCCCC[C@H](N)C(=O)NCC(=O)O
The data set is described as above. It counts as cell-based, Danio rerio. The following applies: pH 7.6, -60 mV. The source says: (§1) two-electrode voltage clamp, transport current, Xenopus oocytes on zfPepT1a

Substrate in data set [4]: NCC(=O)N[C@@H](CC(=O)O)C(=O)O
Described as above. The following applies: pH 7.6, -60 mV, 18 degC incubation of oocytes, proton-coupled transport, 18.0 °C. It counts as cell-based, Danio rerio.
From the text: as §1

For `NCC(=O)N[C@@H](CCC(N)=O)C(=O)O` [Gly-Gln] (H-Gly-Gln-OH), on zfPepT1b (reference substrate), the “two-electrode voltage clamp, transport current, Xenopus oocytes” value was “Gly-Lys and Lys-Gly currents are significantly reduced in amplitude if compared to those generated by Gly-Gln”.
For `CSCC[C@H](NC(=O)[C@@H](N)CCCCN)C(=O)O` [Lys-Met], at zfPepT1b, the “two-electrode voltage clamp, transport current, Xenopus oocytes” value was “in zebrafish PepT1b Lys-Met and Met-Lys show comparable currents”.

B1: asPepT1a (Salmo salar) (protein)
chain: MTDEEVVKKGKSKEVCGYPLSIFFIVVNEFCERFSYYGMRAVLVLYFRYFLRFDDDLATSIYHTFVALCYLTPILGAVVADSWLGKFKTIIYLSIVYAIGQVVMAVSAIHDITDTDRDGTPDNLTLHIVLSMVGLLLIALGTGGIKPCVAAFGGDQFQDHQAKQRSTFFSVFYLCINGGSLLSTIITPILRGQECGIHSQQKCYPLAFGVPAALMVVALVVFIIGSGMYHKTEPQGNIMLDVCKCIGFAVKNRFRHRSSSYPKRTHWMDWAEEKYEKLLIAQIKMVLKVLFLYIPLPMFWTLFDQKGSRWTLQATTMDGNFGSLILQPDQMQTVNPILILTLVPIMDSVVYPLIKKCGLNFTPLRRMTVGMFLAAMAFVAAALVQIQIDKTLPTFPSSSQSQLKLLNMGSIPLTVTLPNNDPFVIEAAKANANYLTFEEESINVSFQSPAISRTISLAKGKRQTLLIPSNLSAPMWEMTDDLMAKPEQGANAIRFVNGMAGAVNVSTFGSIEYSSASNYSLISNGKATFTITNGANTCEYSREFGFGSSYTLLIPSHFAWGLTCSESISGVEDIQPNSFHMGWQIPQYFLITCGEVVFSVTGLEFSYSQAPSNMKAVLQAGWLFTVAIGNFIVLIVAEIAQIEEQWAEFVLFASLLVAVCVIFSIMAYFYTYMDPAEIEAQFTDNGGKEESDKEELQMQKKDVVDHHNEDDEAKQTKM
Consider B1, for which, in data set [1], the K0.5 is listed as 6.33 ± 0.78 mmol/L.

B2: asPepT1b (Salmo salar) (protein)
chain: MTDIDVKKSKRKVDVCGYPLSIFFIVVNEFCERFSYYGMRAVLVLYFRYFLKWDDDLSTSIYHTFIALCYLTPILGAIVADSWLGKFKTIVYLSIVYTVGQVVMAVSAIHDITDTDRDGTPDNMTFHVAMSMVGLFLIALGTGGIKPCVAAFGGDQFEEHQEKQRSTFFSIFYLSINAGSLLSTVITPILRGQECGIHSQQKCYPLAFGVPAALMVVALIVFIMGSGMYNKTAPKGNIMLEVCKCIGFAVKNRFRHRSKKFPKREHWMDWADEKYDKLLVAQVKMVLKVMFLYIPLPMFWTLFDQQGSRWTLQATTMDGNFGILTVQPDQMQTVNPILILALVPIMDSLVYPLIKKCHLNFTPLKRMTVGMLIAALAFVAAALLQLQIDQTLPKLPQGVAGQVKFLNLNSAPLTLTIDGTIDVSVPAHQVNTGDYLTFDKSVRVVFNKNTSTGTDLILMSQTRRTALVSPTLDMNLVYDLSKKPDDGMNAIRFVNGLGSALNVTLGVGDIAPLAVSNYSLVPQGKAEFTIMNSGGASCLYSIDLGFGSAFTLLIPSTFTIGSPDCWQAIQVVEDIQPNTIHMGWQIPQYFLMTGGEVVFSVTGLEFSYSQAPSNMKSVLQAGWLFTVAVGNIIVLIVAEAAQLPDQWAEYILFASLLVVVCIVFAIMSYFYTYTDPAEIEAEFRQPEHGPERKRDQVEMERKDSDCSKSSKGSDMKKKDSVVEQLNQEVKQSKM
notes: complete ORF in pSPORT1, cRNA-injected Xenopus laevis oocytes
B2: the K0.5 in data set [2] came to 0.18 ± 0.01 mmol/L.

B3: zfPepT1a (Danio rerio) (protein)
chain: MPDSKMDETKKKKKKTAECCGYPISIFFIVVNEFCERFSYYGMRAVLVLYFRYFLLWDDDLATSIYHAFVALCYLTPILGAIIADSWLGKFKTIIYLSIVYAVGQVVMAVSTIHDITDANRDGTPDNFTLHIALSMLGLVLIALGTGGIKPCVAAFGGDQFQEHQSRQLNTFFSVFYLCINAGSLLSTLITPVLRAQECGIHTQQQCYPLAFGVPAALMVVSLVVFIAGSGMYTKTAPEGNIMGSVCKCIWFALNNRFRHRSDIYPKREHWMDWAEEKYDKLLIAQIKMVLKVLFLYIPLPMFWTLFDQKGSRWTLQATTMTGDFGGFVLQPDQMQTVNPILILTLVPIMDRIIFPLIKKCGLNFSPLKRMTVGMLFAATAFIAAALVQMEIDKTLPNFPSSSESQLKVVNMHSESLIVTVPSQEPLLIGSFESSPDYITFDQQDIRLAFNTTPEINKDLSLIKGSRQTLIIPSEPAEMYLKEDIKSKPKEGKNAVRFVNGWTAYLNITNLESSLQPSETSNYTLVSQGMRKFTLTDGIQSCEFSRKFGFGSSYTFLIPSDLFSTDCESIKEIEDMQPNSVHMALQIPQYFLITTGEVMFSVTGLQFSYSQAPKNMKSVLQAGWLCTNAVGNIIVLIVAELGKLPKQWAEYVLFASLLVAVSIIFSIMAYFYTYIDPAEIEAEILKQQETDPDKKKKKETLEMEEKENEQEIKQTKI
notes: as for B2
On to B3, for which the results for the K0.5 in data set [3] and in data set [4] were 18.35 ± 3.51 mmol/L and 5.89 ± 2.14 mmol/L, respectively.
